PMC4915132, “Structural insights of ZIP4 extracellular domain critical for optimal zinc transport” (Nature Communications, 2016)
One block for each molecule: values may come before it.

Columns and labels:
[1] = target: extracellular domain of ZIP14 from Pteropus alecto (Pteropus alecto); experiment: SEC; purified protein on a size exclusion column; elution volume compared with standard proteins eluted on the same column
[2] = target: pZIP14-ECD C147S mutant (Pteropus alecto); experiment: as above
[3] = target: the molecule itself; experiment: cross-linking; disulfide through an engineered cysteine; full-length hZIP4-HA transiently expressed in HEK293T cells; 4-20% gradient SDS-PAGE with or without 5% β-mercaptoethanol, western blot with anti-HA
[4] = target: the molecule itself; experiment: SEC; purified protein on a size exclusion column; elution volume compared with standard proteins eluted on the same column

stoichiometry N [1]: 2
Molecule: extracellular domain of ZIP14 from Pteropus alecto (from UniProt A5D7L5 61-174) (domain or fragment)

stoichiometry N [2]: 2
Molecule: pZIP14-ECD C147S mutant (from UniProt A5D7L5 61-174) (domain or fragment)

B1: full-length human ZIP4 S297C mutant with C-terminal HA tag (natural protein, UniProt Q6P5W5-1 23-647, looked up)
chain: SPPAGLLSLLTSGQGALDQEALGGLLNTLADRVHCANGPCGKCLSVEDALGLGEPEGSGLPPGPVLEARYVARLSAAAVLYLSNPEGTCEDARAGLWASHADHLLALLESPKALTPGLSWLLQRMQARAAGQTPKMACVDIPQLLEEAVGAGAPGSAGGVLAALLDHVRSGSCFHALPSPQYFVDFVFQQHSSEVPMTLAELSALMQRLGVGREAHSDHSHRHRGASSRDPVPLISSSNSSSVWDTVCLSARDVMAAYGLSEQAGVTPEAWAQLCPALLQQQLSGACTSQSRPPVQDQLSQSERYLYGSLATLLICLCAVFGLLLLTCTGCRGVTHYILQTFLSLAVGAVTGDAVLHLTPKVLGLHTHSEEGLSPQPTWRLLAMLAGLYAFFLFENLFNLLLPRDPEDLEDGPCGHSSHSHGGHSHGVSLQLAPSELRQPKPPHEGSRADLVAEESPELLNPEPRRLSPELRLLPYMITLGDAVHNFADGLAVGAAFASSWKTGLATSLAVFCHELPHELGDFAALLHAGLSVRQALLLNLASALTAFAGLYVALAVGVSEESEAWILAVATGLFLYVALCDMLPAMLKVRDPRPWLLFLLHNVGLLGGWTVLLLLSLYEDDITF
notes: Human zinc transporter ZIP4 (SLC39A4), GenBank BC062625, with S297C (S297 is equivalent to S293 in pZIP4); Intermolecular disulfide C297-C297* in the dimer; also called S297C mutant ZIP4; source: HEK293T, transiently transfected, in lysate; not shown: HA, C-terminal, kept
stoichiometry N [3]: 2

B2: ZIP4 extracellular domain from Pteropus alecto (black fruit bat) (domain or fragment, UniProt L5KLU7 36-322, looked up)
chain: SGQGALDRVALGGLLNTLAARVHCTSGPCGKCLSVDDLLALGRPEEPGHLARLSAAAALYLSDPEGTCEDIRAGRWASRADHLLALLEGPKALAPGLSRLLQRIQAQTTGQPSAGEACVDPPQLLREAGVAGAPGSPGPVLATLLEHVGRGSCFHTLPTPQYFVDFVFQQSHGNTPNISVAELAALMQRLGVGGVTETHSDHHHQEKRVNRQGPTPLTAPNSSSDTWDTVCLSARDVMAVYGLSEQTGVTPEAWAQLSPALLQQQLSGACSPQPSHPAQNQLSQAEK
notes: Zinc transporter ZIP4 (SLC39A4) of Pteropus alecto, GenBank ELK11751, residues 36-322 (extracellular domain: HRD 36-191 and PCD 192-322); A selenomethionine-substituted form was also crystallised for phasing; Four intramolecular disulfide bonds (C59-C64, C67-C103, C153-C188, C266-C305); also called pZIP4-ECD; ZIP4-ECD; source: E. coli Origami B(DE3) pLysS, purified (Ni-NTA, Mono-Q, SEC); not …
stoichiometry N [4]: 2
